# Data: article PMC3159478 (Nucleic Acids Research, 2011)
# Like-named read-outs stand apart in the source and are kept apart here.
# T1: SsoMCM WT (Sulfolobus solfataricus, UniProt Q9UXG1 1-686)
# T1 sequence: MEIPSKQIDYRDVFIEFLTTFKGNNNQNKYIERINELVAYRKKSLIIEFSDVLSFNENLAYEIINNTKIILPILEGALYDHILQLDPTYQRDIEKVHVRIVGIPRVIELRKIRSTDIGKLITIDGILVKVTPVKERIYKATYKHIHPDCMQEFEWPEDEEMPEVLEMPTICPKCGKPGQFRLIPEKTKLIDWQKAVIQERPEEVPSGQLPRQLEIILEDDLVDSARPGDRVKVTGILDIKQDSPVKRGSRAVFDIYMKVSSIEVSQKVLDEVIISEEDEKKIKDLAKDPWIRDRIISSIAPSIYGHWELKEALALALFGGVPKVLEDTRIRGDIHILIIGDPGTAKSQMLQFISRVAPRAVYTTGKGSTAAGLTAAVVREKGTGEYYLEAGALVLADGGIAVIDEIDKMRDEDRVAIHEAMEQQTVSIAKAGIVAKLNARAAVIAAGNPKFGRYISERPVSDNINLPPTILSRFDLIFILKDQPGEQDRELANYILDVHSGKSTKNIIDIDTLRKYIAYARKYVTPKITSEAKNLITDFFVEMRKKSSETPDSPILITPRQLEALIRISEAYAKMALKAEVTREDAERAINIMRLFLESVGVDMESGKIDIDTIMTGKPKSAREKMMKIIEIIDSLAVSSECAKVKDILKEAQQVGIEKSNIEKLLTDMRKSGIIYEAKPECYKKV
# T2: SsoMCM K323A (Sulfolobus solfataricus, UniProt Q9UXG1 1-686, K323A)
# T2 sequence: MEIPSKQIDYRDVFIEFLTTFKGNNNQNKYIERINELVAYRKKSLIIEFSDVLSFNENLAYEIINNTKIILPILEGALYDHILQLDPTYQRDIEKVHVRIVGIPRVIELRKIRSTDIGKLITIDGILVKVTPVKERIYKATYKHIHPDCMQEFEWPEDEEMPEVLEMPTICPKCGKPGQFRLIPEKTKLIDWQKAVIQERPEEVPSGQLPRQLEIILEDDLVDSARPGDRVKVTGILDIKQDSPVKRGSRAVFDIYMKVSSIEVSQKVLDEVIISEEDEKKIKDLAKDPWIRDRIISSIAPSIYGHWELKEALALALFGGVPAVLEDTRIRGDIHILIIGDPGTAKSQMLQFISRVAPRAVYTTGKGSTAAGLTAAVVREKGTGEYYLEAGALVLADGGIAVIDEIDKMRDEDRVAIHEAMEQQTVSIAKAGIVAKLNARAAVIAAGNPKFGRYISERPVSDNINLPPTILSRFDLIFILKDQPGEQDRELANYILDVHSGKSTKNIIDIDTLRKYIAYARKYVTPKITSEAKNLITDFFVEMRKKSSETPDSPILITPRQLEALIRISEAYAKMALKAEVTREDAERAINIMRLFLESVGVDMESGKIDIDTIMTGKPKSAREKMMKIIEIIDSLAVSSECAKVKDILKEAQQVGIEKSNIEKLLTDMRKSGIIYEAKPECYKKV
# T3: SsoMCM R440A (Sulfolobus solfataricus, UniProt Q9UXG1 1-686, R440A)
# T3 sequence: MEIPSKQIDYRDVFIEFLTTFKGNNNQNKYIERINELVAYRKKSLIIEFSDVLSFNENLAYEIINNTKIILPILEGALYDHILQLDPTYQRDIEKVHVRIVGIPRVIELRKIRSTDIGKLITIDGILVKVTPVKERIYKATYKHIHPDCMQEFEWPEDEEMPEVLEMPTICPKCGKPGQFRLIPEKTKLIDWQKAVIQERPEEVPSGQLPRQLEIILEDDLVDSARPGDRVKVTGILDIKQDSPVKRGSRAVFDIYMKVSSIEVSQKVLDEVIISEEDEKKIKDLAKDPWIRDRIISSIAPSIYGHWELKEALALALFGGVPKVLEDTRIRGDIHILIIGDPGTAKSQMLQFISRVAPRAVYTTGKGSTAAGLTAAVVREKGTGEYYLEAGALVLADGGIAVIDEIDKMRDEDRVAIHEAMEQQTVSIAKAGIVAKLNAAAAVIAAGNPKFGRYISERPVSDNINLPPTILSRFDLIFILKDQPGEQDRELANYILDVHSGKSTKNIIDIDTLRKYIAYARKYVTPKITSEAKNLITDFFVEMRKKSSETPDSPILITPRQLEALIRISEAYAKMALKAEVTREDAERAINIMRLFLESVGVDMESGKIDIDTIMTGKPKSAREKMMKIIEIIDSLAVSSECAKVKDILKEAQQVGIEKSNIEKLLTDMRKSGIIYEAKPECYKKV
# T4: SsoMCM K323A/R440A (Sulfolobus solfataricus, UniProt Q9UXG1 1-686, K323A;R440A)
# T4 sequence: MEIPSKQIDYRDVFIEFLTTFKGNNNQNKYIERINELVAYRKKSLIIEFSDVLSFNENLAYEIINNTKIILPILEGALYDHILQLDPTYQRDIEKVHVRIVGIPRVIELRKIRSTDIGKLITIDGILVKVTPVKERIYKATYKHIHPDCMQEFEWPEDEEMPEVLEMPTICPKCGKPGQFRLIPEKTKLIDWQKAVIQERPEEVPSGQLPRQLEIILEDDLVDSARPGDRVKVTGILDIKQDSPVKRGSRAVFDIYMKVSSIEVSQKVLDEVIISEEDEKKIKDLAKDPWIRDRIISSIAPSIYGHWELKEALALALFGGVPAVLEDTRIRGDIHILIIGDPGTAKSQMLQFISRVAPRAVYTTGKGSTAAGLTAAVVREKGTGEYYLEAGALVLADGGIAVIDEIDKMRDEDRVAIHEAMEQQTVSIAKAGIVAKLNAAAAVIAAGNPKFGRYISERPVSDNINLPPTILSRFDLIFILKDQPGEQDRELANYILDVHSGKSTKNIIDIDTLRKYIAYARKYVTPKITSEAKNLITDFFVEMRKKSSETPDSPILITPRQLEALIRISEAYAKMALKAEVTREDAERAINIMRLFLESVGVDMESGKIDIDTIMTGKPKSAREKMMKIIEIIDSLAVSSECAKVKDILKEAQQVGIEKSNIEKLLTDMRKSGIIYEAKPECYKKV
# B1: Wild-type SsoMCM fluorescently labelled at the N-terminus with Alexa 488 (donor) or Alexa 555 (acceptor) (protein)
# chain: MEIPSKQIDYRDVFIEFLTTFKGNNNQNKYIERINELVAYRKKSLIIEFSDVLSFNENLAYEIINNTKIILPILEGALYDHILQLDPTYQRDIEKVHVRIVGIPRVIELRKIRSTDIGKLITIDGILVKVTPVKERIYKATYKHIHPDCMQEFEWPEDEEMPEVLEMPTICPKCGKPGQFRLIPEKTKLIDWQKAVIQERPEEVPSGQLPRQLEIILEDDLVDSARPGDRVKVTGILDIKQDSPVKRGSRAVFDIYMKVSSIEVSQKVLDEVIISEEDEKKIKDLAKDPWIRDRIISSIAPSIYGHWELKEALALALFGGVPKVLEDTRIRGDIHILIIGDPGTAKSQMLQFISRVAPRAVYTTGKGSTAAGLTAAVVREKGTGEYYLEAGALVLADGGIAVIDEIDKMRDEDRVAIHEAMEQQTVSIAKAGIVAKLNARAAVIAAGNPKFGRYISERPVSDNINLPPTILSRFDLIFILKDQPGEQDRELANYILDVHSGKSTKNIIDIDTLRKYIAYARKYVTPKITSEAKNLITDFFVEMRKKSSETPDSPILITPRQLEALIRISEAYAKMALKAEVTREDAERAINIMRLFLESVGVDMESGKIDIDTIMTGKPKSAREKMMKIIEIIDSLAVSSECAKVKDILKEAQQVGIEKSNIEKLLTDMRKSGIIYEAKPECYKKV
# B2: fork 5'-tail-50 nt / 3'-tail-30 nt (mixed)
# DNA 1: CACCTCTCCCTACGCTTCCCACCCACCCCGACCGGCATCTGCTATGGTACGCTGAGCGAGAGTAGC
# DNA 2: CGATGAGAGCCGATGAGAGCCGATGAGAGCGAGTCGCATGGTATCGTCTAGCCGGTCGGGGTGGGTGGGAAGCGTAGGGAGAGGTG
# Assays:
# Q9UXG1 [1] = assay: FRET or BRET
# Q9UXG1 [2] = assay: FRET or BRET; remark: listed apart in the source
# Q9UXG1 [3] = assay: FRET or BRET; remark: listed apart in the source
# Q9UXG1 [4] = assay: FRET or BRET; remark: listed apart in the source
# Q9UXG1 [5] = assay: FRET or BRET; remark: listed apart in the source
# SsoMCM WT = target: T1, SsoMCM WT; assay: fluorescence anisotropy
# SsoMCM K323A = target: T2, SsoMCM K323A; assay: fluorescence anisotropy
# SsoMCM R440A = target: T3, SsoMCM R440A; assay: fluorescence anisotropy
# SsoMCM K323A/R440A = target: T4, SsoMCM K323A/R440A; assay: fluorescence anisotropy
Binder,"kobs1 of MCM subunit exchange (first exponential, direct exchange of subunits) (Q9UXG1 [1]) [s⁻¹]","kobs1 of MCM subunit exchange (first exponential, direct exchange of subunits) (Q9UXG1 [2]) [s⁻¹]","kobs1 of MCM subunit exchange (first exponential, direct exchange of subunits) (Q9UXG1 [3]) [s⁻¹]","kobs1 of MCM subunit exchange (first exponential, direct exchange of subunits) (Q9UXG1 [4]) [s⁻¹]","kobs1 of MCM subunit exchange (first exponential, direct exchange of subunits) (Q9UXG1 [5]) [min⁻¹]",Kd (SsoMCM WT) [nM],Kd (SsoMCM K323A) [nM],Kd (SsoMCM R440A) [nM],Kd (SsoMCM K323A/R440A) [nM]
B1,0.0474,0.196,0.192,0.0556,0.125 ± 0.005,,,,
B2,,,,,,75 ± 13,93 ± 10,92 ± 13,90 ± 9
